The subject of one data set is Synechocystis PCC6803. Put plainly: Toxicity assay for erythritol: resistance of Synechocystis PCC6803, growth rate. It counts as cell-based. The note with it: BG-11, pH 8.0, low light ~40 μE, 30° C. How it is done: FIG. 4. Toxicity assay for erythritol. Synechocystis PCC6803 was inoculated in 10 ml BG-11 supplemented with 10 mM TES-buffer-NaOH (pH=8.0) and with 10 μg/ml kanamycine at an OD of 0.2. The culture was incubated at low light intensity (˜40 μE), 30° C. and shaking at 120 rpm. It was clearly shown (FIG. 4) that up to a concentration of 10 gr/L erythritol, cultures are not affected with respect to growth-rate.

For data set [1] the following is noted: substrate D-erythrose; cited from earlier work.
The conditions of data set [2]: substrate D-erythrose-4-P; cited from earlier work.
For data set [3] the following is noted: co-factor NADPH; cited from earlier work.

Read-outs that look alike come from different tables or passages of the source. Some results are limits rather than exact numbers.

In the case of `OC[C@@H](O)[C@@H](O)CO` [erythritol], the “erythritol concentration up to which cultures are not affected with respect to growth-rate” value in the data set with Synechocystis PCC6803 is on record as ≤ 10 gr/L.

B1: GLD1: reductase from Hypocrea jecorina (Trichoderma reesei), SEQ ID NO: 11, 12 (protein, listed as Hypocrea jecorina)
chain: MSSGRTVTLNTGYKIPQIGYGTWQAAPGEVGAGVFEALKVGYRHLDLAKVYGNQKEVGEGIKKALAEVPGLKREDIFITSKLWNNSHKPEDVEPALDDTLAELGLDYLDLYLIHWPVAFAPGADLFPKSEDGSEVQLNQNVSIVQTWKAMTELPKSKVRSVGVSNFTIEHLDAVIEATGVVPAVNQIERHPRLPNQPLIDYCAKKGIIITAYSAFGNNTKGLPLLVSSDEVKAVADNLSKKQGKTVTPAQVILAWSQIGGHTVIPKSVTKARIAENFQEVELDDEAIAALNKLGEKPQRFNIPYTYKPRWNINLFNTEEEKAAAHTAVIKL
B1: the Km (commonly the concentration of substrate that gives half-maximal velocity) in data set [1] was 0.016 to 0.134 mM.

B2: Gcy1p: erythrose reductase from Saccharomyces cerevisiae, SEQ ID NO: 7, 8 (protein, listed as Saccharomyces cerevisiae)
chain: MPATLHDSTKILSLNTGAQIPQIGLGTWQSKENDAYKAVLTALKDGYRHIDTAAIYRNEDQVGQAIKDSGVPREEIFVTTKLWCTQHHEPEVALDQSLKRLGLDYVDLYLMHWPARLDPAYIKNEDILSVPTKKDGSRAVDITNWNFIKTWELMQELPKTGKTKAVGVSNFSINNLKDLLASQGNKLTPAANQVEIHPLLPQDELINFCKSKGIVVEAYSPLGSTDAPLLKEPVILEIAKKNNVQPGHVVISWHVQRGYVVLPKSVNPDRIKTNRKIFTLSTEDFEAINNISKEKGEKRVVHPNWSPFEVFK
For B2, the Michaelis constant (Km) in data set [1] was 3.4 mM.

B3: YidA: phosphatase from Escherichia coli, SEQ ID NO: 1, 2 (protein, listed as Escherichia coli)
chain: MAIKLIAIDMDGTLLLPDHTISPAVKNAIAAARARGVNVVLTTGRPYAGVHNYLKELHMEQPGDYCITYNGALVQKAADGSTVAQTALSYDDYRFLEKLSREVGSHFHALDRTTLYTANRDISYYTVHESFVATIPLVFCEAEKMDPNTQFLKVMMIDEPAILDQAIARIPQEVKEKYTVLKSAPYFLEILDKRVNKGTGVKSLADVLGIKPEEIMAIGDQENDIAMIEYAGVGVAMDNAIPSVKEVANFVTKSNLEDGVAFAIEKYVLN
Turning to B3, in data set [2], the “D-erythrose-4-P Kcat” value was 19 s⁻¹ and the Michaelis-Menten constant (Km) is 19 µM.

B4: TM1254: phosphatase from Thermotoga maritima MSB8, SEQ ID NO: 5, 6 (protein, listed as Thermotoga maritima)
chain: MEAVIFDMDGVLMDTEPLYFEAYRRVAESYGKPYTEDLHRRIMGVPEREGLPILMEALEIKDSLENFKKRVHEEKKRVFSELLKENPGVREALEFVKSKRIKLALATSTPQREALERLRRLDLEKYFDVMVFGDQVKNGKPDPEIYLLVLERLNVVPEKVVVFEDSKSGVEAAKSAGIERIYGVVHSLNDGKALLEAGAVALVKPEEILNVLKEVL
Turning to B4, in data set [2], the “D-erythrose-4-P Vmax” value is 2.63 umol/min/mg protein and the Michaelis constant (Km) is 152 µM.

B5: ALR1: reductase from Aspergillus niger, SEQ ID NO: 13, 14 (protein)
chain: MSLGKKVTLNSGAQIPQLGFGTWQSAPGQVGDAVYEALKAGYRHLDLATIYQNQREVAEGIKRAYKDVPGLKREDIFITSKLWNSQHDPAVVEKALDECLAELELDYLDLYLVHWPVSFTTGSELFPLVKDSSVEGGDVVINDDISIVDTWKAMTQLPKSKARTVGVSNHMIPHLEAIINATGVVPAVNQIERHPVLQSNELIEYCQKKGIHVTAYSAFGNNGFGVPLLVTRPEVKEVAESASKRLGTTVTPAQVILAWSQVGGHSVIPKSVTPSRIHENFKEVELTPEEIAKVSELGKDRRRYNTPYVANTPRWDIDIFGEEEEKPAGHKVIV
modifications: Aspergillus niger
Regarding B5, in data set [1], the “D-erythrose Kcat” value was 25 s⁻¹ and the Michaelis constant (Km) was 0.139 mM.

B6: ErCm: reductase from Candida magnolia JH110, SEQ ID NO: 9, 10 (protein, listed as Candida magnoliae)
chain: MSSTYTLTRLSAPSMVLNSGSQIPAVGYGLWKQQGSEAKDSVRCAIESGYRHLDCATAYQNHKEVGQAIREAGVPRDELWITSKVWGTHFDNPEEGLDDILEELGVEYLDLLLLHLPVAFKRNPEDPKQLRGLPVDHDMKYADVWARMEKLPKSKVRNIGVSNLTVRALDELLQTAKVTPAVNQVEMHPNLPQKKLLDYCKSKGIVVQAYSPLAQGQHENPVVTDIADDLGVSPAQVVLSWGALRGTNILPKSSTPSRIRENLELIQLSDDHMRRIDALARR
As for B6, in data set [1], the “D-erythrose Kcat” value is 7.6 s⁻¹ and the Km is 8.5 mM. In data set [3], the Km was 16 µM and the “NADPH Kcat” value is 48 s⁻¹.

Source of the values: patent US10273490B2, “Erythritol production in cyanobacteria” (Photanol B.V., priority 2014, dated 2019).
